Experimental data taken from patent WO2020219978A1 (dated 2020).

Assays:
[1] = target: T1, human BCMA (hu-BCMA), as used in SPR (human, UniProt Q02223 1-54); assay: SPR, mean (n = 3 by paragraph 97)
T1 construct: The construct used in SPR is not described; also called B cell maturation antigen; TNFRSF17
T1 sequence: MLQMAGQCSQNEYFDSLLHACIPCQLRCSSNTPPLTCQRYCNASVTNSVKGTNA

[2] = target: T1, human BCMA (hu-BCMA), as used in SPR; assay: SPR
mouse BCMA = target: T2, mouse BCMA (mouse, UniProt O88472 1-49, limits assumed); assay: SPR
T2 construct: also called rodent BCMA
T2 chain (looked up): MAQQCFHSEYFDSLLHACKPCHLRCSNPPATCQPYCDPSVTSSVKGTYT

BCMA/Fc = target: T3, BCMA/Fc (human, UniProt Q02223 1-54); assay: flow cytometry blocking experiment on U266 cells; soluble BCMA/Fc against BCMA on the cells
T3 construct: not shown: Fc part not described
T3 sequence: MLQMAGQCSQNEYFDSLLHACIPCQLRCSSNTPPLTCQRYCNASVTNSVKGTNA

CD3 on Jurkat cells [3] = target: T4, CD3 on Jurkat cells (human, UniProt P07766 23-207); assay: flow cytometry on Jurkat cells
T4 construct: also called CD3 on T cell lines
T4 sequence (P07766 23-207 limits assumed): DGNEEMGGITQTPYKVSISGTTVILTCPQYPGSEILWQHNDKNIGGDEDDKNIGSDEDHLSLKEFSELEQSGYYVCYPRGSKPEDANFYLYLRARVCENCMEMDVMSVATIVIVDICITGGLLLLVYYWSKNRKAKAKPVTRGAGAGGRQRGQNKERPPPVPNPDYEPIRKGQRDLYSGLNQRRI

[4] = target: T5, human cluster of differentiation 3 epsilon/delta heterodimer (CD3ed) (human, UniProt P04234 22-105); assay: SPR (n = 3 by paragraph 97)
T5 construct: also called human CD3ed heterodimer
T5 sequence (chain, as listed by the source mutant, chain 1 of 2): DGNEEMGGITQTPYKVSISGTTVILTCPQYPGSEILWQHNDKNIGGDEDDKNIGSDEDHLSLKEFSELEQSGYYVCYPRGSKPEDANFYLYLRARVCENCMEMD
T5 sequence (P04234 22-105, stated change not applied, chain 2 of 2): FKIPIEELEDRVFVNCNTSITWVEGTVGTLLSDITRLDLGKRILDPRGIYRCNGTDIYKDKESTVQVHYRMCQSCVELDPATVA

[5] = target: T1, human BCMA (hu-BCMA), as used in SPR; assay: not stated (description)
[6] = target: human CD3 epsilon (CD3ɛ), form of the assay not stated (human, UniProt P07766 23-126, limits assumed); assay: not stated (description)
human CD3 epsilon (CD3ɛ), form of the assay not stated, sequence (P07766 23-126 limits assumed): as the sequence (chain, as listed by the source mutant, chain 1 of 2) above

CD3 on Jurkat cells [7] = target: T4, CD3 on Jurkat cells; assay: flow cytometry on Jurkat cells, second study
[8] = target: T6, human BCMA on cells (NCI-H929, L363, JJN-3, RPMI-8226, U266 myeloma cell lines; HEK293T-huBCMA) (human, UniProt Q02223 1-184); assay: flow cytometry on NCI-H929 MM cells, 3 lots
T6 construct: also called BCMA on myeloma cell lines
T6 sequence: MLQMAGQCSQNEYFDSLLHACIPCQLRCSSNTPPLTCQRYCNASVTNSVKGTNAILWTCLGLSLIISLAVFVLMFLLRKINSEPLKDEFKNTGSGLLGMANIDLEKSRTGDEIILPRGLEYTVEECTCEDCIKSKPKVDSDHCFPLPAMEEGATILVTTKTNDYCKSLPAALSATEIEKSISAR

B1: BCMA binder of CC-93269 (anti-BCMA IgG and Fab fragment of clone 83A10-42) (antibody, V domains shown)
VH: EVQLLESGGGLVQPGGSLRLSCAASGFTFSDNAMGWVRQAPGKGLEWVSAISGPGSSTYYADSVKGRFTISRDNSKNTLYLQMNSLRAEDTAVYYCAKVLGWFDYWGQGTLVTVSS
VL: EIVLTQSPGTLSLSPGERATLSCRASQSVSDEYLSWYQQKPGQAPRLLIHSASTRATGIPDRFSGSGSGTDFTLAISRLEPEDFAVYYCQQYGYPPDFTFGQGTKVEIK
B1 was tested, and the Kd [1] was 0.431 nM, the Kd [2] was 0.203 to 0.45 nM and the binding result (mouse BCMA) was “binds”.

B2: phycoerythrin (PE)-conjugated BCMA binder (Clone 83A10-42) of CC-93269 (antibody, V domains shown)
VH: EVQLLESGGGLVQPGGSLRLSCAASGFTFSDNAMGWVRQAPGKGLEWVSAISGPGSSTYYADSVKGRFTISRDNSKNTLYLQMNSLRAEDTAVYYCAKVLGWFDYWGQGTLVTVSS
VL: EIVLTQSPGTLSLSPGERATLSCRASQSVSDEYLSWYQQKPGQAPRLLIHSASTRATGIPDRFSGSGSGTDFTLAISRLEPEDFAVYYCQQYGYPPDFTFGQGTKVEIK
modifications: phycoerythrin (PE)-conjugated; site not stated
notes: also called PE-conjugated 83A10-42
B2: binds (BCMA/Fc).

B3: CC-93269, bispecific trivalent anti-BCMA/anti-CD3 T cell engaging antibody (TCE) (bispecific antibody, human IgG1, kappa, L234A L235A)
heavy 1: not shown
heavy 2: EVQLLESGGGLVQPGGSLRLSCAASGFTFSDNAMGWVRQAPGKGLEWVSAISGPGSSTYYADSVKGRFTISRDNSKNTLYLQMNSLRAEDTAVYYCAKVLGWFDYWGQGTLVTVSSASTKGPSVFPLAPSSKSTSGGTAALGCLVEDYFPEPVTVSWNSGALTSGVHTFPAVLQSSGLYSLSSVVTVPSSSLGTQTYICNVNHKPSNTKVDEKVEPKSCDKTHTCPPCPAPEAAGGPSVFLFPPKPKDTLMISRTPEVTCVVVDVSHEDPEVKFNWYVDGVEVHNAKTKPREEQYNSTYRVVSVLTVLHQDWLNGKEYKCKVSNKALGAPIEKTISKAKGQPREPQVCTLPPSRDELTKNQVSLSCAVKGFYPSDIAVEWESNGQPENNYKTTPPVLDSDGSFFLVSKLTVDKSRWQQGNVFSCSVMHEALHNHYTQKSLSLSPGK
light 1: EVQLLESGGGLVQPGGSLRLSCAASGFTFSTYAMNWVRQAPGKGLEWVSRIRSKYNNYATYYADSVKGRFTISRDDSKNTLYLQMNSLRAEDTAVYYCVRHGNFGNSYVSWFAYWGQGTLVTVSSASVAAPSVFIFPPSDEQLKSGTASVVCLLNNFYPREAKVQWKVDNALQSGNSQESVTEQDSKDSTYSLSSTLTLSKADYEKHKVYACEVTHQGLSSPVTKSFNRGEC
light 2: EIVLTQSPGTLSLSPGERATLSCRASQSVSDEYLSWYQQKPGQAPRLLIHSASTRATGIPDRFSGSGSGTDFTLAISRLEPEDFAVYYCQQYGYPPDFTFGQGTKVEIKRTVAAPSVFIFPPSDRKLKSGTASVVCLLNNFYPREAKVQWKVDNALQSGNSQESVTEQDSKDSTYSLSSTLTLSKADYEKHKVYACEVTHQGLSSPVTKSFNRGEC
In the case of B3, the EC50 (CD3 on Jurkat cells [3]) is reported as 16.8 to 37.4 nM, the Kd [4] is reported as 25 nM and the Kd [5] is reported as ~0.3 nM. The Kd [6] was 24 to 28 nM, the “fold higher affinity than to rodent BCMA” value [2] was ~10 fold and the EC50 (CD3 on Jurkat cells [7]) was 121 nM. For the same binder, the EC50 [8] was 1.7 to 2.8 nM.
